The results in this text go back to patent EP2397495A1 (SANOFI, dated 2011).

Positions count from the first letter of the chain named. Where “and” joins values, the source holds several entries; their conditions need not be identical. Identical values can stand only once.

The chains are these.
T1: human GPVI on the platelet surface (human, UniProt Q9HCN6 21-339)
T1 sequence (looked up): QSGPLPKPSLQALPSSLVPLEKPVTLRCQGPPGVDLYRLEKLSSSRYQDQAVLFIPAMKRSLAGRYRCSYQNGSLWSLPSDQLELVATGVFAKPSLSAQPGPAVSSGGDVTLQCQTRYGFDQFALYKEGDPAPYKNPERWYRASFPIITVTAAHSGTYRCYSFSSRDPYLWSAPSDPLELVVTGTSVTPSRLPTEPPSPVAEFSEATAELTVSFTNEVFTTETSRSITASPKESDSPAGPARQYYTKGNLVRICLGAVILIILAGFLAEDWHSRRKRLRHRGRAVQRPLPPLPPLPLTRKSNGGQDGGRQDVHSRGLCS

B1: humanized anti-GPVI Fab VL1 with VH2 (Fab, V domains shown)
VH: QVQLQESGPGLVAPSQSLSITCTVSGFSLTGYGVNWVRQPPSRGLEWLGMIWGDGSTDYQSTLKSRLSISKDNSKSQVFLKMNSLTTDDTARYYCARDLPMDYWGQGTSVTVSS
VL: DIQMTQSPSSLSASVGGRVTITCKASQDINKYIAWYQHKPGKGPSLLIHYTSTLQPGVPSRFSGSGSGRDYSFSISNLQPEDIATYYCLQYANLLTFGGGTKLEIKR
B2: humanized anti-GPVI Fab VL1 with VH1 (Fab, V domains shown)
VH: B1 VH with N73T
VL: B1 VL
B3: humanized anti-GPVI Fab VL1 with VH3 (Fab, V domains shown)
VH: B1 VH with Q1E, Q5L, Q16G, S42G, R43K, T86R, Q106L
VL: B1 VL
B4: humanized anti-GPVI Fab VL3 with VH4 (Fab, V domains shown)
VH: B1 VH with G31Y
VL: B1 VL with N93L
B5: humanized anti-GPVI Fab VL2 with VH2 (Fab, V domains shown)
VH: B1 VH
VL: B1 VL with N93H
B6: humanized anti-GPVI Fab VL1 with VH5 (Fab, V domains shown)
VH: B1 VH with Y103E
VL: B1 VL
B7: humanized anti-GPVI Fab VL1 with VH4 (Fab, V domains shown)
VH: B1 VH with G31Y
VL: B1 VL
B8: humanized anti-GPVI Fab VL3 with VH2 (Fab, V domains shown)
VH: B1 VH
VL: B1 VL with N93L

This assay addresses T1, human GPVI on the platelet surface. As to the kind of experiment: cell-based or functional assay.
Consider B1, for which the “IC50, inhibition of collagen induced platelet aggregation (human platelet rich plasma)” value was 2.3 µg/mL and 2 µg/mL and 1.1 µg/mL.
On to B2, for which the “IC50, inhibition of collagen induced platelet aggregation (human platelet rich plasma)” value is 1.5 µg/mL and 2.3 µg/mL.
Next, B3: 1.5 µg/mL and 1.7 µg/mL; B4: 1 µg/mL and 2.3 µg/mL and 2 µg/mL; B5: 1.4 µg/mL and 2.4 µg/mL and 2.3 µg/mL.
Next, B6: 1.9 µg/mL and 2.3 µg/mL and 1.2 µg/mL; B7: 1.6 µg/mL and 1.8 µg/mL and 1.2 µg/mL; B8: 1.9 µg/mL and 0.9 µg/mL and 2.1 µg/mL.
